# Measured values: publication PMC5764952 (2018)
# B1: Untagged murine saposin A (SapA) [mouse] / His6-tagged murine β-galactocerebrosidase (GALC) [modified: glycosylated; glycosylated] [mouse] (parent)
# chain 1: MGKSLPCDICKTVVTEAGNLLKDNATQEEILHYLEKTCEWIHDSSLSASCKEVVDSYLPVILDMIKGEMSNPGEVCSALNLCQSLQE
# chain 2: YVLDDSDGLGREFDGIGAVSGGGATSRLLVNYPEPYRSEILDYLFKPNFGASLHILKVEIGGDGQTTDGTEPSHMHYELDENYFRGYEWWLMKEAKKRNPDIILMGLPWSFPGWLGKGFSWPYVNLQLTAYYVVRWILGAKHYHDLDIDYIGIWNERPFDANYIKELRKMLDYQGLQRVRIIASDNLWEPISSSLLLDQELWKVVDVIGAHYPGTYTVWNAKMSGKKLWSSEDFSTINSNVGAGCWSRILNQNYINGNMTSTIAWNLVASYYEELPYGRSGLMTAQEPWSGHYVVASPIWVSAHTTQFTQPGWYYLKTVGHLEKGGSYVALTDGLGNLTIIIETMSHQHSMCIRPYLPYYNVSHQLATFTLKGSLREIQELQVWYTKLGTPQQRLHFKQLDTLWLLDGSGSFTLELEEDEIFTLTTLTTGRKGSYPPPPSSKPFPTNYKDDFNVEYPLFSEAPNFADQTGVFEYYMNNEDREHRFTLRQVLNQRPITWAADASSTISVIGDHHWTNMTVQCDVYIETPRSGGVFIAGRVNKGGILIRSATGVFFWIFANGSYRVTADLGGWITYASGHADVTAKRWYTLTLGIKGYFAFGMLNGTILWKNVRVKYPGHGWAAIGTHTFEFAQFDNFRVEAAR
# Variants of: B1
# Experiment: pull-down (immobilised GALC, Coomassie SDS-PAGE, quantified)
# Settings: with His6-tagged murine β-galactocerebrosidase (GALC) [modified: glycosylated, in the presence of Tween-20, n = 3, read off a plot
row,Variant,ratio to parent
1,chain 1 MGKSLPCDICKTVVTEAGNLLKDYATQEEILHYLEKTCEWIHDSSLSASCKEVVDSYLPVILDMIKGEMSNPGEVCSALNLCQSLQE,1.3
